Test results as given in patent US20220275092A1 (F STAR THERAPEUTICS, published 2022).

Columns and labels:
[1] = biological target: T1, mouse PD-L1 (mouse, UniProt Q9EP73 19-239, limits assumed); assay: Biacore (SPR)
T1 construct: also called mPD-L1

[2] = biological target: T2, mouse LAG-3 (mouse, UniProt Q61790 24-442, limits assumed); assay: Biacore (SPR)
T2 construct: also called mLAG-3
T2 sequence (looked up): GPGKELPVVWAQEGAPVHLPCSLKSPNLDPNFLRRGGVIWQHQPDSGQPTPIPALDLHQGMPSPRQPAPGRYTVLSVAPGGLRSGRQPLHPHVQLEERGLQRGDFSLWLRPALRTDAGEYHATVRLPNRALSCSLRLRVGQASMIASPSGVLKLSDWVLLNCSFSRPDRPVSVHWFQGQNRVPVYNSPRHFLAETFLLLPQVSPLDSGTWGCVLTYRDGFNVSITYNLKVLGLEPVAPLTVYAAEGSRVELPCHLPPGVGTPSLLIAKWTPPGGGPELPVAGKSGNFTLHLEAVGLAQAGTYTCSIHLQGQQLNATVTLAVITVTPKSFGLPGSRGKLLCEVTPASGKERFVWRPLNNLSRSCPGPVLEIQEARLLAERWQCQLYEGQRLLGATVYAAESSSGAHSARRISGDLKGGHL

T1 sequence (Q9EP73 19-239 limits assumed): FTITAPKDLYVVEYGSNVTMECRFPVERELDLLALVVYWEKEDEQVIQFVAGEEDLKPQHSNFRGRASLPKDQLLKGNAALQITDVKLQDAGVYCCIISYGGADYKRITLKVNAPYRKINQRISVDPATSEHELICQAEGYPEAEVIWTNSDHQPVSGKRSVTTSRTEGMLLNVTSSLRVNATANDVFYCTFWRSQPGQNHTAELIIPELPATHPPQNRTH

Biacore binding affinity, fold higher than the binding of FS118 to hPD-L1 [1]: ~10 fold
Biacore binding affinity, fold lower than the binding of FS118 to hLAG-3 [2]: ~20 fold
B1: anti-mouse LAG-3/PD-L1 mAb^2 FS18-7-108-29/S1 (with LALA mutation) (bispecific antibody, V domains shown)
VH: not shown
VL: DIQMTQSPSSLSASVGDRVTITCRASQDVSTAVAWYQQKPGKAPKLLIYSASFLYSGVPSRFSGSGSGTDFTLTISSLQPEDFATYYCQQYLFTPPTFGQGTKVEIKR
notes: also called mouse surrogate mAb^2; mLAG-3/PD-L1
